The series can be described thus: amyloid nucleation score (Sup35N fusion, yeast selection) (log enrichment); library NNK3; higher = more nucleation; inactive = no reads after selection. In a few lines: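 The nucleation score is a DiMSum log enrichment of output over input reads, centred on the mode score of non-aggregating sequences. Sequences under 100 input reads were excluded, and reads came from Illumina sequencing of plasmid inserts. Psi-negative yeast expressing Sup35N fused to peptides of 20 random codons were induced with 100 μM copper sulfate for 24 hours and grown 7 days at 30°C on medium lacking adenine and uracil. Random libraries had three technical output replicates.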

± gives the uncertainty stated by the source.

PRQRLMMWSRRG: the amyloid nucleation score entry is “inactive”.
Regarding GSICLRQGPSVMVLRMWLCD, the amyloid nucleation score entry was “inactive”.
FLSLC: the amyloid nucleation score entry is “inactive”.
For the substance VLHGVL, the amyloid nucleation score result was “inactive”.
On to SYSSGSSNNKS, for which the amyloid nucleation score result was “inactive”.
With TSLSTSKVLDASLRMDQLST, the amyloid nucleation score entry is “inactive”.
LIYLYWGLFVTSNSLETCR: the amyloid nucleation score worked out at 1.4 ± 0.086.
For the substance DIKVMNLCLNWFFRLIHGV, the amyloid nucleation score entry is “inactive”.
Consider QYKLFFYWESMV, for which the amyloid nucleation score entry is “inactive”.
On to RDYKLVRHHSHKDVLSCILW, for which the amyloid nucleation score entry was “inactive”.
Take RSGSMWCLSMLVVHLDELTD: the amyloid nucleation score result was “inactive”.
With PVLML, the amyloid nucleation score result was “inactive”.
For QSFQRSVYFSSKGNTEGLFS, the amyloid nucleation score result was “inactive”.
For FNSDKMAPLTGLCEVVRFGR the value was “inactive”; for HFCSGSINMMNFLSKDYKMQ, 2.39 ± 0.063.
Take GPNLLWDRGGPVNSCASKEA: the amyloid nucleation score entry is “inactive”.
The same measure for YVNLCLGANPRSYMFKYGTH: 0.197 ± 0.66; for KERCLVSHCTTLCALFLRVI: “inactive”; for GNVDVAHCDWCKGSTCMLN: 2.64 ± 0.084.
HPCFLW: the amyloid nucleation score result was “inactive”.
In the case of QLLCHYNSSSEFLTQKHRYW, the amyloid nucleation score entry was “inactive”.
For the substance VTVCRHTPILIKKPM, the amyloid nucleation score result is “inactive”.
As to CNYLTMSGF, the amyloid nucleation score result is “inactive”.
For the substance DRTMQVIIYARQRVPLKWVS, the amyloid nucleation score result was “inactive”.
For the substance QMLLDRRGKSTAATRVAPTD, the amyloid nucleation score result was “inactive”.
For LCYAWRSGSNTYMHMMNWSM the value was “inactive”.
On to NYLVVLMGSTCMKVRPLGVS, for which the amyloid nucleation score entry was “inactive”.
As to ICPIMNCVFFHRTDQSLSFN, the amyloid nucleation score was 2.29 ± 0.05.
The same measure for LWGYDNDVNCCTMALNVHGV: 0.503 ± 0.3; for IKWFLSNGIYYGILNFIDTR: “inactive”.
For the substance IWNSRSSCPECALATLETWA, the amyloid nucleation score result is “inactive”.
With RHGEIYAHYKMFVCRLDEVR, the amyloid nucleation score entry was “inactive”.
Turning to TLYVIGLPFDLALMGI, the amyloid nucleation score entry is “inactive”.
The same measure for DVVGLVAGIVVKLILCSHYG: “inactive”.
Consider NKIVNECWHLICSFKLGNLQ, for which the amyloid nucleation score result was “inactive”.
On to QKLNIAFRWFWWFCTLSCNS, for which the amyloid nucleation score result was “inactive”.
For FAICMFRGYLLYFLGLEDEA the value was “inactive”; for LMANVGPAWLQSFAIRGTSH, “inactive”.
For GVVANFSLPLSAVFAWRSFR the value was 2.78 ± 0.055; for YTFNVNITPFTMYHSFIYFS, 3.08 ± 0.051; for GYQDSIGFSSR, “inactive”.
For the substance AFCLQYVCYAKLMGNVNNTC, the amyloid nucleation score worked out at 1.75 ± 0.084.
On to DISPYFLYE, for which the amyloid nucleation score entry is “inactive”.
Turning to VSTHVLHPYTYT, the amyloid nucleation score entry is “inactive”.
In turn, YSVFGVNKQMAFAVCDWHHC displayed an amyloid nucleation score of 0.477 ± 0.17.
Take MVSGH: the amyloid nucleation score result is “inactive”.
The same measure for MNYWHNYFSLYDHLLMSKCC: “inactive”.
In the case of FVIVSL, the amyloid nucleation score amounted to 1.6 ± 0.069.
On to VFSRKKYRHPWMYAVTFGYC, for which the amyloid nucleation score entry was “inactive”.
With MSLRSSRHTPVDSQISSMEM, the amyloid nucleation score entry was “inactive”.
For the substance SKAVSLCGLRLMFFPLYPGS, the amyloid nucleation score entry was “inactive”.
The same measure for ASSSNGIVTFNNPR: “inactive”.
On to SLSSRGLYLSKDLMPILNYR, for which the amyloid nucleation score result was “inactive”.
For the substance EGHGGTRLSHRA, the amyloid nucleation score entry is “inactive”.
In turn, LGPMAGRVSRYCNAARLTRC gave an amyloid nucleation score of -0.999 ± 2.4.
Turning to TLSMSWDLTKHFAVVTESRG, the amyloid nucleation score entry is “inactive”.
For SNVPYKDLQTLWCSHPVSVV the value was “inactive”; for SLTFTLCRVHGGRESRVSLG, 0.319 ± 0.81.
Turning to CYFVSVKLLTGVKLSHKYL, the amyloid nucleation score was 1.25 ± 0.15.
For the substance FIIPSSMTHMARKNIVRAW, the amyloid nucleation score result was “inactive”.
Substance NGFIILADCQMVCLRTSDLM had an amyloid nucleation score of 1.77 ± 0.065.
For NDFIVECMTVESS the value was “inactive”; for LWEDNVWVLKR, -0.1 ± 0.19.
YNCFTHSPWRKH: the amyloid nucleation score result is “inactive”.
For the substance HSFFVVQAS, the amyloid nucleation score result was “inactive”.
With FVPRPISNSAGIP, the amyloid nucleation score result is “inactive”.
Take LIRMFISVMSYCMTVGLGMG: the amyloid nucleation score entry is “inactive”.
With FSCIPCG, the amyloid nucleation score entry was “inactive”.
For EGVTII the value was “inactive”; for VIWAVPAH, “inactive”.
For VGSLIGMNYGF the value was “inactive”.
In the case of TLLFDPMLNA, the amyloid nucleation score result is “inactive”.
As for VLLNLSSFMLSTFTLRMS, the amyloid nucleation score result is “inactive”.
RRMLTRTFRG: the amyloid nucleation score result is “inactive”.
Turning to RNSRTVRRDLQINCR, the amyloid nucleation score entry was “inactive”.
The same measure for RCWLKRAWVWSQKVSDRSTW: “inactive”; for CVHYRFMLSRLYMILVPLTY: “inactive”; for WEFAGVVYEWGVWKSVSGYG: 0.336 ± 0.3.
NMVISYGVWYCDRKD gave an amyloid nucleation score of 0.84 ± 0.2.
As for TIFKRSPACYYNGIHLWVTF, the amyloid nucleation score entry is “inactive”.
As for FIDMN, the amyloid nucleation score entry was “inactive”.
For NCRFEGLDKSTS the value was “inactive”.
The same measure for FRSEVGVNFNRTLWRYNRVY: “inactive”; for YEKPCEG: “inactive”; for SSLKWYTHPAMCYAHTWSIT: “inactive”.
On to SIMFVCQFGGGSRNSYGCLA, for which the amyloid nucleation score was 2.24 ± 0.078.
As to TVIFWWLKGNRPVSMIDSDI, the amyloid nucleation score entry is “inactive”.
With CPCGNVGVFLGLTRTVKGKS, the amyloid nucleation score result is “inactive”.
The same measure for NAMCR: “inactive”.
With AWWYGLSMYIKKCILGSRFE, the amyloid nucleation score entry was “inactive”.
In the case of KDLNENGRLFIIDPIIFSMF, the amyloid nucleation score result was “inactive”.
For PMMGSLYFVP the value was “inactive”.
Take NDTFNAK: the amyloid nucleation score entry was “inactive”.
Regarding SLSIASVWWDPGTHVFLALW, the amyloid nucleation score result is “inactive”.
Take NLKILPAVDHCSDHPMERNE: the amyloid nucleation score result was “inactive”.
The same measure for FKQMDTLTHISFSKAIMPSF: “inactive”; for GWGIICFAKY: “inactive”.
For SVNFSYASAIPHAQMIQVRV, the amyloid nucleation score result was “inactive”.
For GKQIRSNR the value was “inactive”; for WQRNFEWIYDPLRAKSWNSI, -0.558 ± 0.76.
Turning to MINWHSRMSSEG, the amyloid nucleation score result was “inactive”.
Consider QGLSRIRTKQGLAWIGLYTV, for which the amyloid nucleation score result is “inactive”.
FLNTSPYCGTL: the amyloid nucleation score entry was “inactive”.
As to QRAYVLVTLVFGA, the amyloid nucleation score result is “inactive”.
With VPEWG, the amyloid nucleation score entry is “inactive”.
As to KFYDSISRLQNERGPVIFPR, the amyloid nucleation score result was “inactive”.
CELANFKCLLGSQMFSEPLG: the amyloid nucleation score entry was “inactive”.
In the case of SLETMFMEKKRTSPNMVMLW, the amyloid nucleation score is -0.42 ± 0.73.
Turning to IDQDFMTVIRQS, the amyloid nucleation score entry is “inactive”.
With KLYESYASIRNNGCLRCSNS, the amyloid nucleation score result was “inactive”.
In the case of MHSTVVEHLLWLTFTPGYKL, the amyloid nucleation score entry is “inactive”.
For FYNDWRVFRVGCSLGRDQSN, the amyloid nucleation score result was “inactive”.
In the case of MNSVHYNDHPHDAVKFTISI, the amyloid nucleation score entry was “inactive”.
With WVWRSNSPGAEKWTLLTKTL, the amyloid nucleation score result was “inactive”.
On to CYMYVRNGHLEIFLMGLSGF, for which the amyloid nucleation score entry was “inactive”.
As for LLAWRHEMLMFVPDNLSYGG, the amyloid nucleation score result is “inactive”.
On to SQKFGALVFI, for which the amyloid nucleation score result was “inactive”.
Take HHRLSGEMSSWVATATCWVG: the amyloid nucleation score result was “inactive”.
With SRRSLNGIN, the amyloid nucleation score is -0.05 ± 0.3.
As to DRPRQRTAFVYRQWLMYYQ, the amyloid nucleation score result is “inactive”.
The same measure for CYADPG: “inactive”.
On to NMLMMWCFLVSYNEKMRKTV, for which the amyloid nucleation score result was “inactive”.
For PNGSEIENLMYRGTLSC the value was “inactive”; for WWKSLLTRWRCLPPRK, -0.307 ± 0.62; for VWTGHCMASFVRFTCSVVDD, “inactive”.
With MIFNHMNKL, the amyloid nucleation score entry is “inactive”.
For the substance HTDWICYRRWYCIASRAMYQ, the amyloid nucleation score entry was “inactive”.
The same measure for SQTIYGI: “inactive”; for WIHRMLSSGVDSPRNTSLWT: “inactive”.
With LCLHERCDALSFDDNPYSTR, the amyloid nucleation score result was “inactive”.
In the case of CEFRIFNWSFCSKRVGLRYV, the amyloid nucleation score result was “inactive”.
Turning to IYTSGWINYSIARFACCIRW, the amyloid nucleation score result was “inactive”.

(Values after the supplement of paper PMC12042874.)
